Reference: paper PMC9482650, “Quantitative fragmentomics allow affinity mapping of interactomes” (Nature Communications, 2022)

T1: GRIP1_5, Q9Y3R0
T1 sequence (Q9Y3R0 568-668, limits assumed, looked up): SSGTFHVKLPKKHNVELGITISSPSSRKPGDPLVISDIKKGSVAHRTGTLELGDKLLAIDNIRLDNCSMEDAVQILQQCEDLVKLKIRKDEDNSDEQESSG

T2: ARHGEF11, O15085
T2 sequence (O15085 42-136, limits assumed, looked up): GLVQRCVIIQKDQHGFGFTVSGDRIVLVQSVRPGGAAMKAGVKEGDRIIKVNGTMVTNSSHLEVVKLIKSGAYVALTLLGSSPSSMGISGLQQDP

T3: DLG3_1, Q92796
T3 sequence (Q92796 125-227, limits assumed, looked up): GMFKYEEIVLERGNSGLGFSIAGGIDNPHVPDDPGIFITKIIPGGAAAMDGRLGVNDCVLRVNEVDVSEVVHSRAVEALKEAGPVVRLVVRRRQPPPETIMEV

T4: MPP6, Q9NZW5
T4 sequence (Q9NZW5 125-219, limits assumed, looked up): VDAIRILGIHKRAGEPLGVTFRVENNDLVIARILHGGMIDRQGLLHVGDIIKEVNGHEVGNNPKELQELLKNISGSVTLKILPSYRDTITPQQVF

T5: SHANK1, Q9Y566
T5 sequence (Q9Y566 658-767, limits assumed, looked up): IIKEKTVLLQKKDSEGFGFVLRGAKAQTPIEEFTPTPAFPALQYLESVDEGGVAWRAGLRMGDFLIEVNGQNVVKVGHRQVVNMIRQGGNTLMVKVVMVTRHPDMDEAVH

T6: SIPA1L2, Q9P2F8
T6 sequence (Q9P2F8 945-1036, limits assumed, looked up): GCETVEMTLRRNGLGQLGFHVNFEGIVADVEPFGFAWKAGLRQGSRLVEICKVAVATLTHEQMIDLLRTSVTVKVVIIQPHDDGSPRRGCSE

T7: RADIL, Q96JH8
T7 sequence (Q96JH8 971-1071, limits assumed, looked up): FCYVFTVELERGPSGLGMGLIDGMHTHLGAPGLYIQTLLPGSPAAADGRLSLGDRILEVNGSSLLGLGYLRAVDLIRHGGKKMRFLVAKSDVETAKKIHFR

T8: DLG3_2, Q92796
T8 sequence (Q92796 221-321, limits assumed, looked up): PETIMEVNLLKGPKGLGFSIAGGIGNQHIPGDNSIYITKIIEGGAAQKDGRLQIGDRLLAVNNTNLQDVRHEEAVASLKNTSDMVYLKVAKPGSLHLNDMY

T9: LIN7A, O14910
T9 sequence (O14910 103-200, limits assumed, looked up): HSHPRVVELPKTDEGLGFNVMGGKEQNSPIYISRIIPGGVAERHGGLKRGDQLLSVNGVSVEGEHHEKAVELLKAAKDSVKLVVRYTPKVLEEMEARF

B1: CAVIN3, Q969G5 (peptide)
chain: EALLQMESVA

molecular target: T1, GRIP1_5, Q9Y3R0; assay: holdup assay; parameters: key: below the threshold = too weak to quantify, mostly under pKd 3.1 to 4; conditions: plain residues with an end cap or a label only (N-terminal biotin on a linker: ado-ado)

| Binder | pKd |
| --- | --- |
| B1 | below the threshold |

molecular target: MAGI1_2, Q96QZ7; assay: holdup assay; parameters: key: below the threshold = too weak to quantify, mostly under pKd 3.1 to 4; conditions: plain residues with an end cap or a label only (N-terminal biotin on a linker: ado-ado)
Sequence (Q96QZ7 456-580): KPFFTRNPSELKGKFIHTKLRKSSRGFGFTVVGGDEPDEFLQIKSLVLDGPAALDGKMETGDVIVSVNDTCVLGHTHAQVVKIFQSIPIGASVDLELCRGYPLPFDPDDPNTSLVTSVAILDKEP

| Binder | pKd |
| --- | --- |
| B1 | below the threshold |

molecular target: MAGI2_2, Q86UL8; assay: holdup assay; parameters: key: below the threshold = too weak to quantify, mostly under pKd 3.1 to 4; conditions: plain residues with an end cap or a label only (N-terminal biotin on a linker: ado-ado)
Sequence (Q86UL8 410-522): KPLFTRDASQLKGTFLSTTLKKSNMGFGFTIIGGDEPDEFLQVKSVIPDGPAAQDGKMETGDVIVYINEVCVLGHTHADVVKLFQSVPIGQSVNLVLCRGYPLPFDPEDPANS

| Binder | pKd |
| --- | --- |
| B1 | below the threshold |

molecular target: T2, ARHGEF11, O15085; assay: holdup assay; parameters: key: below the threshold = too weak to quantify, mostly under pKd 3.1 to 4; conditions: plain residues with an end cap or a label only (N-terminal biotin on a linker: ado-ado)

| Binder | pKd |
| --- | --- |
| B1 | below the threshold |

molecular target: GORASP2, Q9H8Y8; assay: holdup assay; parameters: key: below the threshold = too weak to quantify, mostly under pKd 3.1 to 4; conditions: plain residues with an end cap or a label only (N-terminal biotin on a linker: ado-ado)

| Binder | pKd |
| --- | --- |
| B1 | below the threshold |

molecular target: MAGI3_2, Q5TCQ9; assay: holdup assay; parameters: key: below the threshold = too weak to quantify, mostly under pKd 3.1 to 4; conditions: plain residues with an end cap or a label only (N-terminal biotin on a linker: ado-ado)
Sequence (Q5TCQ9 398-503): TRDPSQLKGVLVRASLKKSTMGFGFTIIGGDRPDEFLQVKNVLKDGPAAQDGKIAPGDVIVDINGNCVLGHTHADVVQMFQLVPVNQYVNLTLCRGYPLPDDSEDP

| Binder | pKd |
| --- | --- |
| B1 | below the threshold |

molecular target: T3, DLG3_1, Q92796; assay: holdup assay; parameters: key: below the threshold = too weak to quantify, mostly under pKd 3.1 to 4; conditions: plain residues with an end cap or a label only (N-terminal biotin on a linker: ado-ado)

| Binder | pKd |
| --- | --- |
| B1 | below the threshold |

molecular target: DLG4_3, P78352; assay: holdup assay; parameters: key: below the threshold = too weak to quantify, mostly under pKd 3.1 to 4; conditions: plain residues with an end cap or a label only (N-terminal biotin on a linker: ado-ado)
Sequence (P78352 306-403): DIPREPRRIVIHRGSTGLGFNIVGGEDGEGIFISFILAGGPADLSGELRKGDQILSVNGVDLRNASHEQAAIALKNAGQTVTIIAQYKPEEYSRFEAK

| Binder | pKd |
| --- | --- |
| B1 | below the threshold |

molecular target: TJP1_2, Q07157; assay: holdup assay; parameters: key: below the threshold = too weak to quantify, mostly under pKd 3.1 to 4; conditions: plain residues with an end cap or a label only (N-terminal biotin on a linker: ado-ado)
Sequence (Q07157 181-274): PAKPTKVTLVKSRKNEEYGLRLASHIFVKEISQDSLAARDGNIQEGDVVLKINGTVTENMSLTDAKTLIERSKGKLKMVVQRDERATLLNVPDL

| Binder | pKd |
| --- | --- |
| B1 | below the threshold |

molecular target: IL16_1, Q14005; assay: holdup assay; parameters: key: below the threshold = too weak to quantify, mostly under pKd 3.1 to 4; conditions: plain residues with an end cap or a label only (N-terminal biotin on a linker: ado-ado)
Sequence (Q14005 210-306): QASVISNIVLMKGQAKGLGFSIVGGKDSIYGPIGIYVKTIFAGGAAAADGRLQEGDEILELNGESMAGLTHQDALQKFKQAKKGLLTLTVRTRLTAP

| Binder | pKd |
| --- | --- |
| B1 | below the threshold |

molecular target: T4, MPP6, Q9NZW5; assay: holdup assay; parameters: key: below the threshold = too weak to quantify, mostly under pKd 3.1 to 4; conditions: plain residues with an end cap or a label only (N-terminal biotin on a linker: ado-ado)

| Binder | pKd |
| --- | --- |
| B1 | below the threshold |

molecular target: T5, SHANK1, Q9Y566; assay: holdup assay; parameters: key: below the threshold = too weak to quantify, mostly under pKd 3.1 to 4; conditions: plain residues with an end cap or a label only (N-terminal biotin on a linker: ado-ado)

| Binder | pKd |
| --- | --- |
| B1 | below the threshold |

molecular target: AHNAK1, Q09666; assay: holdup assay; parameters: key: below the threshold = too weak to quantify, mostly under pKd 3.1 to 4; conditions: plain residues with an end cap or a label only (N-terminal biotin on a linker: ado-ado)
Sequence (Q09666 4-100): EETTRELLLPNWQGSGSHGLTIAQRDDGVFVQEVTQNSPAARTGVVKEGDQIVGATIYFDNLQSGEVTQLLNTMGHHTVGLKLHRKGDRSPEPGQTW

| Binder | pKd |
| --- | --- |
| B1 | below the threshold |

molecular target: PDLIM1, O00151; assay: holdup assay; parameters: key: below the threshold = too weak to quantify, mostly under pKd 3.1 to 4; conditions: plain residues with an end cap or a label only (N-terminal biotin on a linker: ado-ado)
Sequence (O00151 1-87): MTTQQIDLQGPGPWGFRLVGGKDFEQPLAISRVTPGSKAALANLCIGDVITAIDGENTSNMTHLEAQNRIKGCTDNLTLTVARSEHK

| Binder | pKd |
| --- | --- |
| B1 | below the threshold |

molecular target: GOPC, Q9HD26; assay: holdup assay; parameters: key: below the threshold = too weak to quantify, mostly under pKd 3.1 to 4; conditions: plain residues with an end cap or a label only (N-terminal biotin on a linker: ado-ado)

| Binder | pKd |
| --- | --- |
| B1 | below the threshold |

molecular target: DLG1_3, Q12959; assay: holdup assay; parameters: key: below the threshold = too weak to quantify, mostly under pKd 3.1 to 4; conditions: plain residues with an end cap or a label only (N-terminal biotin on a linker: ado-ado)

| Binder | pKd |
| --- | --- |
| B1 | below the threshold |

molecular target: TJP2_1, Q9UDY2; assay: holdup assay; parameters: key: below the threshold = too weak to quantify, mostly under pKd 3.1 to 4; conditions: plain residues with an end cap or a label only (N-terminal biotin on a linker: ado-ado)
Sequence (Q9UDY2 24-128): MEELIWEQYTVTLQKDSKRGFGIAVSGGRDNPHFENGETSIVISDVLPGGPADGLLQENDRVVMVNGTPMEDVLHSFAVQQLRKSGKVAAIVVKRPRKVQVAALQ

| Binder | pKd |
| --- | --- |
| B1 | below the threshold |

molecular target: GRASP, Q7Z6J2; assay: holdup assay; parameters: key: below the threshold = too weak to quantify, mostly under pKd 3.1 to 4; conditions: plain residues with an end cap or a label only (N-terminal biotin on a linker: ado-ado)
Sequence (Q7Z6J2 96-193): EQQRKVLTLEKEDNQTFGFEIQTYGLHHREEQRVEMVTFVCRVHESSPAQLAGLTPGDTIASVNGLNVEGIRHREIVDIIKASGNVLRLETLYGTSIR

| Binder | pKd |
| --- | --- |
| B1 | below the threshold |

molecular target: SCRIB_2, Q14160; assay: holdup assay; parameters: key: below the threshold = too weak to quantify, mostly under pKd 3.1 to 4; conditions: plain residues with an end cap or a label only (N-terminal biotin on a linker: ado-ado)
Sequence (Q14160 857-960): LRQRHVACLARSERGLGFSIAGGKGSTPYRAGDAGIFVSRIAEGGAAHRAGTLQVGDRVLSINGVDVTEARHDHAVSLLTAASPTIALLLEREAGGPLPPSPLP

| Binder | pKd |
| --- | --- |
| B1 | below the threshold |

molecular target: DLG4_2, P78352; assay: holdup assay; parameters: key: below the threshold = too weak to quantify, mostly under pKd 3.1 to 4; conditions: plain residues with an end cap or a label only (N-terminal biotin on a linker: ado-ado)
Sequence (P78352 155-259): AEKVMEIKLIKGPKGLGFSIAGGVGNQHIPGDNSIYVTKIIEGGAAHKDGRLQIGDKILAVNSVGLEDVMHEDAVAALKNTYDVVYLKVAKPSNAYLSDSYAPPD

| Binder | pKd |
| --- | --- |
| B1 | below the threshold |

molecular target: T6, SIPA1L2, Q9P2F8; assay: holdup assay; parameters: key: below the threshold = too weak to quantify, mostly under pKd 3.1 to 4; conditions: plain residues with an end cap or a label only (N-terminal biotin on a linker: ado-ado)

| Binder | pKd |
| --- | --- |
| B1 | below the threshold |

molecular target: DLG1_1, Q12959; assay: holdup assay; parameters: key: below the threshold = too weak to quantify, mostly under pKd 3.1 to 4; conditions: plain residues with an end cap or a label only (N-terminal biotin on a linker: ado-ado)

| Binder | pKd |
| --- | --- |
| B1 | below the threshold |

molecular target: FRMPD3, Q5JV73; assay: holdup assay; parameters: key: below the threshold = too weak to quantify, mostly under pKd 3.1 to 4; conditions: plain residues with an end cap or a label only (N-terminal biotin on a linker: ado-ado)
Sequence (Q5JV73 12-100): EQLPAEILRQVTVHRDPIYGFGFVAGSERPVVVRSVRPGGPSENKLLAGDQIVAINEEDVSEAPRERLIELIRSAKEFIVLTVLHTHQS

| Binder | pKd |
| --- | --- |
| B1 | below the threshold |

molecular target: LDB3, O75112; assay: holdup assay; parameters: key: below the threshold = too weak to quantify, mostly under pKd 3.1 to 4; conditions: plain residues with an end cap or a label only (N-terminal biotin on a linker: ado-ado)
Sequence (O75112 1-94): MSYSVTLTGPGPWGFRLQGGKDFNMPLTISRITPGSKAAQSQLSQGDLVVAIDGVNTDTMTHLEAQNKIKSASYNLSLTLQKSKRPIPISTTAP

| Binder | pKd |
| --- | --- |
| B1 | below the threshold |

molecular target: T7, RADIL, Q96JH8; assay: holdup assay; parameters: key: below the threshold = too weak to quantify, mostly under pKd 3.1 to 4; conditions: plain residues with an end cap or a label only (N-terminal biotin on a linker: ado-ado)

| Binder | pKd |
| --- | --- |
| B1 | below the threshold |

molecular target: T8, DLG3_2, Q92796; assay: holdup assay; parameters: key: below the threshold = too weak to quantify, mostly under pKd 3.1 to 4; conditions: plain residues with an end cap or a label only (N-terminal biotin on a linker: ado-ado)

| Binder | pKd |
| --- | --- |
| B1 | 4.21 |

molecular target: T9, LIN7A, O14910; assay: holdup assay; parameters: key: below the threshold = too weak to quantify, mostly under pKd 3.1 to 4; conditions: plain residues with an end cap or a label only (N-terminal biotin on a linker: ado-ado)

| Binder | pKd |
| --- | --- |
| B1 | below the threshold |

molecular target: SCRIB_3, Q14160; assay: holdup assay; parameters: key: below the threshold = too weak to quantify, mostly under pKd 3.1 to 4; conditions: plain residues with an end cap or a label only (N-terminal biotin on a linker: ado-ado)
Sequence (Q14160 999-1103): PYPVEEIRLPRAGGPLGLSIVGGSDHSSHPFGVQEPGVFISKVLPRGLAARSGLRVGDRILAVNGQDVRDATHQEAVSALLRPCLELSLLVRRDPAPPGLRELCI

| Binder | pKd |
| --- | --- |
| B1 | below the threshold |
